Molecular target: Musashi-2 (MSI2) (UniProt Q96DH6 1-328)
Experiment: EMSA; 10 mM HEPES pH 7.6, 20 mM KCl, 1 mM MgCl2, 1 mM DTT, 5% glycerol, protease inhibitors, 2 ug tRNA, 20 U SUPERase-In, 20 ul, 50 ng MSI2, 20 ng RNA, 25 C; 8% PAGE
Settings: protein: recombinant; label: 5'-32P

Sequence of Musashi-2 (MSI2) (Q96DH6 whole entry): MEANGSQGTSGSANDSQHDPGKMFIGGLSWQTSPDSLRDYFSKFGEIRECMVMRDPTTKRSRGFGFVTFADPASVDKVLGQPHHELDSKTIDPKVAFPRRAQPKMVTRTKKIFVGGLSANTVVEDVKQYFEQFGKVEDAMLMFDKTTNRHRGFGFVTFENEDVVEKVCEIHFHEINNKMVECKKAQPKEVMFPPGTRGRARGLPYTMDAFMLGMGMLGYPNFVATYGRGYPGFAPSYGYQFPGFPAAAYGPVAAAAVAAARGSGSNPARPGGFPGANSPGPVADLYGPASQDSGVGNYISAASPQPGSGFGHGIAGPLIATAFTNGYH

Row | Binder | binding result
1 | GCAGAUGUUUUAGAAGGAAAAA (ssRNA) [EGFR Oligo 1 wt] | binds
2 | GGUCCCAAGCCAAGCCUUAAGU (ssRNA) [Negative Control oligo] | no binding
3 | UAACUUCGUUUUAGAAACAUUCAAG (ssRNA) [EGFR Oligo 2 wt] | binds
4 | GUAGUAGUAGUAGUA (ssRNA) [Positive Control oligo] | binds

— PMC7961039, “Musashi-2 (MSI2) regulates epidermal growth factor receptor (EGFR) expression and response to EGFR inhibitors in EGFR-mutated non-small cell lung cancer (NSCLC)”
